This passage reports response and percent reduction of receptor-binding activity against wild-type S477–629 results from publication PMC4810246.

Test [1] concerns the target porcine aminopeptidase N (pAPN) ectodomain with a C-terminal His6 tag (UniProt P15145). Nature of the test: ELISA. As to conditions: read off a plot. (ELISA stands for enzyme-linked immunosorbent assay.)
Test [2] has as its target the three mutant proteins. The test is described as follows: ELISA; plates coated overnight at 4 °C with IgG4 Fc-tagged S1 fragments or mutants (60 μg/mL or 120 to 1.875 μg/mL), blocked with BSA, incubated with His6-tagged pAPN (50 μg/mL) 2 h at RT; anti-His detection.
Setting [3] is: S protein 1.875 μg/mL, parent: est. 0.25.
[4] abbreviates: S protein 3.75 μg/mL, parent: est. 0.42.
The mark [5] stands for this setting: S protein 7.5 μg/mL, parent: est. 0.70.
Setting [6] is: S protein 15 μg/mL, parent: est. 1.2.
Setting [7] is: S protein 30 μg/mL, parent: est. 1.7.
Where [8] appears, read: S protein 60 μg/mL, parent: est. 2.0.
Setting [9] is: S proteins coated at 60 μg/mL, pAPN in solution, parent: est. 1.9.

For “PEDV CHGD-01 S1 C-terminus fragment S477-629 with a C-terminal IgG4 Fc tag residues 521-534 replaced by HCoV-NL63 residues 493-506 (RBM1-1)”, the response was 0.13 Abs (630 nm) in test [1] (setting [3]); 0.25 Abs (630 nm) in test [1] (setting [4]); 0.6 Abs (630 nm) in test [1] (setting [5]); 0.98 Abs (630 nm) in test [1] (setting [6]); 1 Abs (630 nm) in test [1] (setting [7]); 1.1 Abs (630 nm) in test [1] (setting [8]). Also, the response in test [1] (setting [9]) is 1.2 Abs (630 nm).
With “PEDV CHGD-01 S1 C-terminus fragment S477-629 with a C-terminal IgG4 Fc tag residues 556-563 replaced by HCoV-NL63 residues 534-541 (RBM2-1)”, the response in test [1] (setting [3]) is 0.15 Abs (630 nm); in test [1] (setting [4]), 0.32 Abs (630 nm); in test [1] (setting [5]), 0.7 Abs (630 nm); in test [1] (setting [6]), 0.88 Abs (630 nm); in test [1] (setting [7]), 0.93 Abs (630 nm); in test [1] (setting [8]), 1.1 Abs (630 nm). Moreover, the response in test [1] (setting [9]) is 1.2 Abs (630 nm).
In the case of “PEDV CHGD-01 S1 C-terminus fragment S477-629 with a C-terminal IgG4 Fc tag residues 607-615 replaced by SGSGS (RBM3-2)”, the response in test [1] (setting [3]) is 0.05 Abs (630 nm); in test [1] (setting [4]), 0.06 Abs (630 nm); in test [1] (setting [5]), 0.13 Abs (630 nm); in test [1] (setting [6]), 0.34 Abs (630 nm); in test [1] (setting [7]), 0.8 Abs (630 nm); in test [1] (setting [8]) it was 1.2 Abs (630 nm). Moreover, the response in test [1] (setting [9]) was 1.4 Abs (630 nm).

B1: porcine aminopeptidase N (pAPN) ectodomain with a C-terminal His6 tag (receptor)
chain: QSKPWNRYRLPTTLLPDSYNVTLRPYLTPNADGLYIFKGKSIVRLLCQEPTDVIIIHSKKLNYTTQGHMVVLRGVGDSQVPEIDRTELVELTEYLVVHLKGSLQPGHMYEMESEFQGELADDLAGFYRSEYMEGNVKKVLATTQMQSTDARKSFPCFDEPAMKATFNITLIHPNNLTALSNMPPKGSSTPLAEDPNWSVTEFETTPVMSTYLLAYIVSEFQSVNETAQNGVLIRIWARPNAIAEGHGMYALNVTGPILNFFANHYNTSYPLPKSDQIALPDFNAGAMENWGLVTYRENALLFDPQSSSISNKERVVTVIAHELAHQWFGNLVTLAWWNDLWLNEGFASYVEYLGADHAEPTWNLKDLIVPGDVYRVMAVDALASSHPLTTPAEEVNTPAQISEMFDSISYSKGASVIRMLSNFLTEDLFKEGLASYLHAFAYQNTTYLDLWEHLQKAVDAQTSIRLPDTVRAIMDRWTLQMGFPVITVDTKTGNISQKHFLLDSESNVTRSSAFDYLWIVPISSIKNGVMQDHYWLRDVSQAQNDLFKTASDDWVLLNVNVTGYFQVNYDEDNWRMIQHQLQTNLSVIPVINRAQVIYDSFNLATAHMVPVTLALDNTLFLNGEKEYMPWQAALSSLSYFSLMFDRSEVYGPMKKYLRKQVEPLFQHFETLTKNWTERPENLMDQYSEINAISTACSNGLPQCENLAKTLFDQWMSDPENNPIHPNLRSTIYCNAIAQGGQDQWDFAWGQLQQAQLVNEADKLRSALACSNEVWLLNRYLGYTLNPDLIRKQDATSTINSIASNVIGQPLAWDFVQSNWKKLFQDYGGGSFSFSNLIQGVTRRFSSEFELQQLEQFKKNNMDVGFGSGTRALEQALEKTKANIKWVKENKEVVLNWFIEHS
Consider B1, for which, in test [2], the percent reduction of receptor-binding activity against wild-type S477–629 is 30 to 40%.
